These results are taken from article PMC9110426, “Cooperative regulation of PBI1 and MAPKs controls WRKY45 transcription factor in rice immunity”.

This data set has as its target T1, Myc-WRKY45 (Oryza sativa (rice), UniProt Q5W6D6 1-326).
T1 sequence: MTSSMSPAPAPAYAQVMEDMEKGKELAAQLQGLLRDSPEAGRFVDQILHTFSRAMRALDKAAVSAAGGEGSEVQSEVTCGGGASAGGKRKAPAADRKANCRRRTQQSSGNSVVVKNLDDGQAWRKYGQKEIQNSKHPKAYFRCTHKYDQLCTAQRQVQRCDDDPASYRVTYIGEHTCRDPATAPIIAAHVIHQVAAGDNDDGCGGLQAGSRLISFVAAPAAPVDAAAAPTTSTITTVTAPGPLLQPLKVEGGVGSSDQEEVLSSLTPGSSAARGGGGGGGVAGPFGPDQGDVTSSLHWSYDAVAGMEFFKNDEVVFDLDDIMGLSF
In words: EMSA; 10 uM ZnCl2; poly(dI-dC); suppressed by excess unlabeled probe (40-fold in Methods, 50-fold in Supplementary Fig. 10c); 25 mM HEPES-KOH pH 7.6, 40 mM KCl, 0.1% Nonidet P-40, 10 uM ZnCl2, 1 mg/mL BSA, 10% glycerol, 1 mM DTT, 0.15 ug poly(dI-dC); 25 min at room temperature; 6% PAGE in Tris-borate at 4 C. The following applies: protein: ivt; tags: Myc; blunt. A general note: A gel shift assay detects complexes by their altered migration in electrophoresis.

B1: DFA promoter W-box probe (dsDNA)
DNA 1: AGTTGGCAAAAGCTAAGTACAAGTCATTGTGTGGTCAATTGATCGACTGATCTGTTGCTC
DNA 2: GAGCAACAGATCAGTCGATCAATTGACCACACAATGACTTGTACTTAGCTTTTGCCAACT
For the molecule B1, the binding result was “binds”.
